Measurements from the RNAGym collection of RNA variant scans (doi:10.1021/acssynbio.7b00057).

B1: Pistol ribozyme (parent)
chain: GGGUCGUUGUUCCAUAAUCGCGUGGAUAUGGCACGCAAGUUUCUACCGGGCACCGUAAAUGUCCGACUGGAGCCGUUCGGGCGGCUAUAAACAGACCUCAGGCCCGAAGCGUGGCGGCACCUGCCGCCGGUGGUAAAAAAGAUCGGAAGAGCACACGUCU

Variants of: B1
Experiment: aptazyme ON/OFF ratio, guanine; higher = stronger switching; co-transcriptional cleavage with and without guanine

In order of rising “aptazyme ON/OFF ratio” value:
1. GGGUCGAGCUCCGAUAAUCGCGUGGAUAUGGCACGCAAGUUUCUACCGGGCACCGUAAAUGUCCGACUGGAGCCGUUCGGGCGGCUAUAAACAGACCUCAGGCCCGAAGCGUGGCGGCACCUGCCGCCGGUGGUAAAAAAGAUCGGAAGAGCACACGUCU  1.1
2. GGGUCGAGCUGGAAUAAUCGCGUGGAUAUGGCACGCAAGUUUCUACCGGGCACCGUAAAUGUCCGACUGGAGCCGUUCGGGCGGCUAUAAACAGACCUCAGGCCCGAAGCGUGGCGGCACCUGCCGCCGGUGGUAAAAAAGAUCGGAAGAGCACACGUCU  1.1
3. GGGUCGAGCUCGGAUAAUCGCGUGGAUAUGGCACGCAAGUUUCUACCGGGCACCGUAAAUGUCCGACUGGAGCCGUUCGGGCGGCUAUAAACAGACCUCAGGCCCGAAGCGUGGCGGCACCUGCCGCCGGUGGUAAAAAAGAUCGGAAGAGCACACGUCU  1.11
4. GGGUCGAGCUCAAAUAAUCGCGUGGAUAUGGCACGCAAGUUUCUACCGGGCACCGUAAAUGUCCGACUGGAGCCGUUCGGGCGGCUAUAAACAGACCUCAGGCCCGAAGCGUGGCGGCACCUGCCGCCGGUGGUAAAAAAGAUCGGAAGAGCACACGUCU  1.17
5. GGGUCGAGCUGGGAUAAUCGCGUGGAUAUGGCACGCAAGUUUCUACCGGGCACCGUAAAUGUCCGACUGGAGCCGUUCGGGCGGCUAUAAACAGACCUCAGGCCCGAAGCGUGGCGGCACCUGCCGCCGGUGGUAAAAAAGAUCGGAAGAGCACACGUCU  1.18
6. GGGUCGAGCUCAGAUAAUCGCGUGGAUAUGGCACGCAAGUUUCUACCGGGCACCGUAAAUGUCCGACUGGAGCCGUUCGGGCGGCUAUAAACAGACCUCAGGCCCGAAGCGUGGCGGCACCUGCCGCCGGUGGUAAAAAAGAUCGGAAGAGCACACGUCU  1.18
7. GGGUCGAGCUCGAAUAAUCGCGUGGAUAUGGCACGCAAGUUUCUACCGGGCACCGUAAAUGUCCGACUGGAGCCGUUCGGGCGGCUAUAAACAGACCUCAGGCCCGAAGCGUGGCGGCACCUGCCGCCGGUGGUAAAAAAGAUCGGAAGAGCACACGUCU  1.19
8. GGGUCGAGUUUAUAUAAUCGCGUGGAUAUGGCACGCAAGUUUCUACCGGGCACCGUAAAUGUCCGACUGGAGCCGUUCGGGCGGCUAUAAACAGACCUCAGGCCCGAAGCGUGGCGGCACCUGCCGCCGGUGGUAAAAAAGAUCGGAAGAGCACACGUCU  1.2
9. GGGUCGAGCUGCGAUAAUCGCGUGGAUAUGGCACGCAAGUUUCUACCGGGCACCGUAAAUGUCCGACUGGAGCCGUUCGGGCGGCUAUAAACAGACCUCAGGCCCGAAGCGUGGCGGCACCUGCCGCCGGUGGUAAAAAAGAUCGGAAGAGCACACGUCU  1.22
10. GGGUCGAGCUCUUAUAAUCGCGUGGAUAUGGCACGCAAGUUUCUACCGGGCACCGUAAAUGUCCGACUGGAGCCGUUCGGGCGGCUAUAAACAGACCUCAGGCCCGAAGCGUGGCGGCACCUGCCGCCGGUGGUAAAAAAGAUCGGAAGAGCACACGUCU  1.22
11. GGGUCGAGCUGGUAUAAUCGCGUGGAUAUGGCACGCAAGUUUCUACCGGGCACCGUAAAUGUCCGACUGGAGCCGUUCGGGCGGCUAUAAACAGACCUCAGGCCCGAAGCGUGGCGGCACCUGCCGCCGGUGGUAAAAAAGAUCGGAAGAGCACACGUCU  1.22
12. GGGUCGAGCUGAGAUAAUCGCGUGGAUAUGGCACGCAAGUUUCUACCGGGCACCGUAAAUGUCCGACUGGAGCCGUUCGGGCGGCUAUAAACAGACCUCAGGCCCGAAGCGUGGCGGCACCUGCCGCCGGUGGUAAAAAAGAUCGGAAGAGCACACGUCU  1.26
13. GGGUCGAGCUGAUAUAAUCGCGUGGAUAUGGCACGCAAGUUUCUACCGGGCACCGUAAAUGUCCGACUGGAGCCGUUCGGGCGGCUAUAAACAGACCUCAGGCCCGAAGCGUGGCGGCACCUGCCGCCGGUGGUAAAAAAGAUCGGAAGAGCACACGUCU  1.28
14. GGGUCGAGUUUAAAUAAUCGCGUGGAUAUGGCACGCAAGUUUCUACCGGGCACCGUAAAUGUCCGACUGGAGCCGUUCGGGCGGCUAUAAACAGACCUCAGGCCCGAAGCGUGGCGGCACCUGCCGCCGGUGGUAAAAAAGAUCGGAAGAGCACACGUCU  1.28
15. GGGUCGAGCUGAAAUAAUCGCGUGGAUAUGGCACGCAAGUUUCUACCGGGCACCGUAAAUGUCCGACUGGAGCCGUUCGGGCGGCUAUAAACAGACCUCAGGCCCGAAGCGUGGCGGCACCUGCCGCCGGUGGUAAAAAAGAUCGGAAGAGCACACGUCU  1.29
16. GGGUCGAGCUCCAAUAAUCGCGUGGAUAUGGCACGCAAGUUUCUACCGGGCACCGUAAAUGUCCGACUGGAGCCGUUCGGGCGGCUAUAAACAGACCUCAGGCCCGAAGCGUGGCGGCACCUGCCGCCGGUGGUAAAAAAGAUCGGAAGAGCACACGUCU  1.37
17. GGGUCGAGCUCGUAUAAUCGCGUGGAUAUGGCACGCAAGUUUCUACCGGGCACCGUAAAUGUCCGACUGGAGCCGUUCGGGCGGCUAUAAACAGACCUCAGGCCCGAAGCGUGGCGGCACCUGCCGCCGGUGGUAAAAAAGAUCGGAAGAGCACACGUCU  1.37
18. GGGUCGAGCUCUGAUAAUCGCGUGGAUAUGGCACGCAAGUUUCUACCGGGCACCGUAAAUGUCCGACUGGAGCCGUUCGGGCGGCUAUAAACAGACCUCAGGCCCGAAGCGUGGCGGCACCUGCCGCCGGUGGUAAAAAAGAUCGGAAGAGCACACGUCU  1.38
19. GGGUCGAGCUGCUAUAAUCGCGUGGAUAUGGCACGCAAGUUUCUACCGGGCACCGUAAAUGUCCGACUGGAGCCGUUCGGGCGGCUAUAAACAGACCUCAGGCCCGAAGCGUGGCGGCACCUGCCGCCGGUGGUAAAAAAGAUCGGAAGAGCACACGUCU  1.4
20. GGGUCGAGCUGUUAUAAUCGCGUGGAUAUGGCACGCAAGUUUCUACCGGGCACCGUAAAUGUCCGACUGGAGCCGUUCGGGCGGCUAUAAACAGACCUCAGGCCCGAAGCGUGGCGGCACCUGCCGCCGGUGGUAAAAAAGAUCGGAAGAGCACACGUCU  1.4
21. GGGUCGAGCUCUAAUAAUCGCGUGGAUAUGGCACGCAAGUUUCUACCGGGCACCGUAAAUGUCCGACUGGAGCCGUUCGGGCGGCUAUAAACAGACCUCAGGCCCGAAGCGUGGCGGCACCUGCCGCCGGUGGUAAAAAAGAUCGGAAGAGCACACGUCU  1.41
22. GGGUCGAGCUGUGAUAAUCGCGUGGAUAUGGCACGCAAGUUUCUACCGGGCACCGUAAAUGUCCGACUGGAGCCGUUCGGGCGGCUAUAAACAGACCUCAGGCCCGAAGCGUGGCGGCACCUGCCGCCGGUGGUAAAAAAGAUCGGAAGAGCACACGUCU  1.41
23. GGGUCGAGCUGCAAUAAUCGCGUGGAUAUGGCACGCAAGUUUCUACCGGGCACCGUAAAUGUCCGACUGGAGCCGUUCGGGCGGCUAUAAACAGACCUCAGGCCCGAAGCGUGGCGGCACCUGCCGCCGGUGGUAAAAAAGAUCGGAAGAGCACACGUCU  1.43
24. GGGUCGAGCUGUCAUAAUCGCGUGGAUAUGGCACGCAAGUUUCUACCGGGCACCGUAAAUGUCCGACUGGAGCCGUUCGGGCGGCUAUAAACAGACCUCAGGCCCGAAGCGUGGCGGCACCUGCCGCCGGUGGUAAAAAAGAUCGGAAGAGCACACGUCU  1.43
25. GGGUCGAGUUUAGAUAAUCGCGUGGAUAUGGCACGCAAGUUUCUACCGGGCACCGUAAAUGUCCGACUGGAGCCGUUCGGGCGGCUAUAAACAGACCUCAGGCCCGAAGCGUGGCGGCACCUGCCGCCGGUGGUAAAAAAGAUCGGAAGAGCACACGUCU  1.44
26. GGGUCGAGCUCCUAUAAUCGCGUGGAUAUGGCACGCAAGUUUCUACCGGGCACCGUAAAUGUCCGACUGGAGCCGUUCGGGCGGCUAUAAACAGACCUCAGGCCCGAAGCGUGGCGGCACCUGCCGCCGGUGGUAAAAAAGAUCGGAAGAGCACACGUCU  1.44
27. GGGUCGAGCUGUAAUAAUCGCGUGGAUAUGGCACGCAAGUUUCUACCGGGCACCGUAAAUGUCCGACUGGAGCCGUUCGGGCGGCUAUAAACAGACCUCAGGCCCGAAGCGUGGCGGCACCUGCCGCCGGUGGUAAAAAAGAUCGGAAGAGCACACGUCU  1.44
28. GGGUCGAGCUCUCAUAAUCGCGUGGAUAUGGCACGCAAGUUUCUACCGGGCACCGUAAAUGUCCGACUGGAGCCGUUCGGGCGGCUAUAAACAGACCUCAGGCCCGAAGCGUGGCGGCACCUGCCGCCGGUGGUAAAAAAGAUCGGAAGAGCACACGUCU  1.49
29. GGGUCGAGUUUACAUAAUCGCGUGGAUAUGGCACGCAAGUUUCUACCGGGCACCGUAAAUGUCCGACUGGAGCCGUUCGGGCGGCUAUAAACAGACCUCAGGCCCGAAGCGUGGCGGCACCUGCCGCCGGUGGUAAAAAAGAUCGGAAGAGCACACGUCU  1.53
30. GGGUCGAGCUGCCAUAAUCGCGUGGAUAUGGCACGCAAGUUUCUACCGGGCACCGUAAAUGUCCGACUGGAGCCGUUCGGGCGGCUAUAAACAGACCUCAGGCCCGAAGCGUGGCGGCACCUGCCGCCGGUGGUAAAAAAGAUCGGAAGAGCACACGUCU  1.57
31. GGGUCGAGUUUGCAUAAUCGCGUGGAUAUGGCACGCAAGUUUCUACCGGGCACCGUAAAUGUCCGACUGGAGCCGUUCGGGCGGCUAUAAACAGACCUCAGGCCCGAAGCGUGGCGGCACCUGCCGCCGGUGGUAAAAAAGAUCGGAAGAGCACACGUCU  1.64
32. GGGUCGAGCUCGCAUAAUCGCGUGGAUAUGGCACGCAAGUUUCUACCGGGCACCGUAAAUGUCCGACUGGAGCCGUUCGGGCGGCUAUAAACAGACCUCAGGCCCGAAGCGUGGCGGCACCUGCCGCCGGUGGUAAAAAAGAUCGGAAGAGCACACGUCU  1.65
33. GGGUCGAGCUGGCAUAAUCGCGUGGAUAUGGCACGCAAGUUUCUACCGGGCACCGUAAAUGUCCGACUGGAGCCGUUCGGGCGGCUAUAAACAGACCUCAGGCCCGAAGCGUGGCGGCACCUGCCGCCGGUGGUAAAAAAGAUCGGAAGAGCACACGUCU  1.66
34. GGGUCGAGCUCAUAUAAUCGCGUGGAUAUGGCACGCAAGUUUCUACCGGGCACCGUAAAUGUCCGACUGGAGCCGUUCGGGCGGCUAUAAACAGACCUCAGGCCCGAAGCGUGGCGGCACCUGCCGCCGGUGGUAAAAAAGAUCGGAAGAGCACACGUCU  1.66
35. GGGUCGAGCUGACAUAAUCGCGUGGAUAUGGCACGCAAGUUUCUACCGGGCACCGUAAAUGUCCGACUGGAGCCGUUCGGGCGGCUAUAAACAGACCUCAGGCCCGAAGCGUGGCGGCACCUGCCGCCGGUGGUAAAAAAGAUCGGAAGAGCACACGUCU  1.67
36. GGGUCGAGUUUCCAUAAUCGCGUGGAUAUGGCACGCAAGUUUCUACCGGGCACCGUAAAUGUCCGACUGGAGCCGUUCGGGCGGCUAUAAACAGACCUCAGGCCCGAAGCGUGGCGGCACCUGCCGCCGGUGGUAAAAAAGAUCGGAAGAGCACACGUCU  3.18
